This series in a line: label from the status in PepcDB records.

Five sequences from a protein production outcome set (Wang et al. 2014) can be followed below.

Regarding “PSFNLGYIGLNNRNEYLKNPKVRQAISMAINRRAVVDAFWSGLGRTDTSIVPPALGWATSSKVPADYKFDPAAAKKLLAEAGYPNGFTLDFWYMPITRSYFPQPKASAEAMAADLADVGIKVNLKTEDWAKYLDDLFAGRLSMFQIGLIGDYGDPDYFYGALYNPTSTNDIGWNAPAELDTLLQQARSGLTRQARAQAYARIHELTYNAGYRIPLVHSQ”, the protein production entry is on record as “failed”.

With “PSGATGKDGLAIPVGKDTAKSSLTVWEDFRCPACKIFETTYRPTLHELVGAGKLKIDYHLVTIIDDGRGGSGSRQAANAAACAQDAGKFTAYHDVLYDNQPDETVDSFADDSKLIELAGKVDGLDTPAFRKCVKDGTHNSWVVKSNAAFDSGGFKGTPTVLFGGKNLAADPTMTPAKLKQMVEAANK”, the protein production entry was “failed”.

Take “PSGFPQNLHVTGLTTSTTELAWDPPVLAERNGRIISYTVVFRDINSQQELQNITTDTRFTLTGLKPDTTYDIKVRAWTSKGSGPLSPSIQSRTMPV”: the protein production result is “not failed”.

Take “PSNAMKQAWLQISQDNKLMSCNDTSKANALLDMVTQGLNPAKNQCYFIPYGNKMQLQRSYHGNVMMLKRDAGAQDVVAQVIYKGDTFKQEMGETGRIKAIKHEQDFFNIDKENIIGAYCTIVFNDGRDNYIEVMTIEQIKQAWMQSSMIKDEKALQNSKTHNNFKEEMAKKTVINRAAKRYINTSTDSNLFKYAQESEQRQRKEVLDAEVEENANQE”: the protein production result is “not failed”.

For “PSPGGQMHAGISSFQQSNSSGTYGPQMSQYGPQGNYSRPPAYSGVPSASYSGPGPGMGISANNQMHGQGPSQPCGAVPLGRMPSAGMQNRPFPGNMSSMTPSSPGMSQQGGPGMGPPMPTVNRKAQEAAAAVMQAAANSAQSRQGSFPGMNQSGLMASSSPYSQPMNNSSSLMNTQAPPYSMAPAMVNSSAASVGLADMMSPGESKLPLPLKADGKEEGTPQPESKSKDSYSSQGISQPPTPGNLPVPSPMSPSSASISSFHGDESDSISSPGWPKTPSSPKSSSSTTTGEKITKVYELGNEPERKLWVDRYLTFMEERGSPVSSLPAVGKKPLDLFRLYVCVKEIGGLAQVNKNKKWRELATNLNVGTSSSAASSLKKQYIQYLFAFECKIERGEEPPPEVFSTGDTKKQPKLQPPSPANSGSLQGPQTPQSTGSNSMAEVPGDLKPPTPASTPHGQMTPMQGGRSSTISVHDPFSDVSDSSFPKRNSMTPNAPYQQGMSMPDVMGRMPYEPNKDPFGGMRKVPGSSEPFMTQGQMPNSSMQDMYNQSPSGAMSNLGMGQRQQFPYGASYDRRHEPYGQQYPGQGPPSGQPPYGGHQPGLYPQQPNYKRHMDGMYGPPAKRHEGDMYNMQYSSQQQEMYNQYGGSYSGPDRRPIQGQYPYPYSRERMQGPGQIQTHGIPLQMMGGPLQSSSSEGPQQNMWAARNDMPYPYQNRQGPGGPTQAPPYPGMNRTDDMMVPDQRINHESQWPSHVSQRQPYMSSSASMQPITRPPQPSYQTPPSLPNHISRAPSPASFQRSLENRMSPSKSPFLPSMKMQKVMPTVPTSQVTGPPPQPPPIRREITFPPGSVEASQPVLKQRRKITSKDIVTPEAWRVMMSLKSGLLAESTWALDTINILLYDDSTVATFNLSQLSGFLELLVEYFRKCLIDIFGILMEYEVGDPSQKALDHNAARKDDSQSLADDSGKEEEDAECIDDDEEDEEDEEEDSEKTESDEKSSIALTAPDAAADPKEKPKQASKFDKLPIKIVKKNNLFVVDRSDKLGRVQEFNSGLLHWQLGGGDTTEHIQTHFESKMEIPPRRRPPPPLSSAGRKKEQEGKGDSEEQQEKSIIATIDDVLSARPGALPEDANPGPQTESSKFPFGIQQAKSHRNIKLLEDEPRSRDETPLCTIAHWQDSLAKRCICVSNIVRSLSFVPGNDAEMSKHPGLVLILGKLILLHHEHPERKRAPQTYEKEEDEDKGVACSKDEWWWDCLEVLRDNTLVTLANISGQLDLSAYTESICLPILDGLLHWMVCPSAEAQDPFPTVGPNSVLSPQRLVLETLCKLSIQDNNVDLILATPPFSRQEKFYATLVRYVGDRKNPVCREMSMALLSNLAQGDALAARAIAVQKGSIGNLISFLEDGVTMAQYQQSQHNLMHMQPPPLEPPSVDMMCRAAKALLAMARVDENRSEFLLHEGRLLDISISAVLNSLVASVICDVLFQIGQL”, the protein production entry is on record as “not failed”.
